Experimental findings from patent CN117736312A (SHANGHAI BOVAX BIOLOGICAL SCIENCE & TECH CO LTD, dated 2024) are described below.

What all share (assay): sandwich ELISA (rabbit anti-L1 capture)
One assay deals with T1, HPV35L1 (human papillomavirus type 35, UniProt P27232 1-502).
T1 sequence: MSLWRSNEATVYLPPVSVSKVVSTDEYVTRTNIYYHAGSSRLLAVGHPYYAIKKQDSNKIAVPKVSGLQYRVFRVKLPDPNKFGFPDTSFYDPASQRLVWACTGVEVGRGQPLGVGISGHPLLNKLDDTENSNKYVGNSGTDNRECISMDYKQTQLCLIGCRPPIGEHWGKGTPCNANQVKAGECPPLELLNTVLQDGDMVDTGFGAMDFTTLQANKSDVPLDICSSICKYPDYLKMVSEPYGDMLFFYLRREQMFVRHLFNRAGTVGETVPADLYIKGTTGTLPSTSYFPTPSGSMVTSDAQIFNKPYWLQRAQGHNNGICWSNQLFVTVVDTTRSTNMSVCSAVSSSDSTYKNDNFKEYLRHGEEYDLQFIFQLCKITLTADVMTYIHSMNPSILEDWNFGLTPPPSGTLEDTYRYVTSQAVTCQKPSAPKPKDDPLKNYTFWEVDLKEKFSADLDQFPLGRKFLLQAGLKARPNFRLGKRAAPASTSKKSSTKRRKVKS

The next assay has as its target T2, HPV11L1 (human papillomavirus type 11, UniProt P04012 1-501).
T2 sequence: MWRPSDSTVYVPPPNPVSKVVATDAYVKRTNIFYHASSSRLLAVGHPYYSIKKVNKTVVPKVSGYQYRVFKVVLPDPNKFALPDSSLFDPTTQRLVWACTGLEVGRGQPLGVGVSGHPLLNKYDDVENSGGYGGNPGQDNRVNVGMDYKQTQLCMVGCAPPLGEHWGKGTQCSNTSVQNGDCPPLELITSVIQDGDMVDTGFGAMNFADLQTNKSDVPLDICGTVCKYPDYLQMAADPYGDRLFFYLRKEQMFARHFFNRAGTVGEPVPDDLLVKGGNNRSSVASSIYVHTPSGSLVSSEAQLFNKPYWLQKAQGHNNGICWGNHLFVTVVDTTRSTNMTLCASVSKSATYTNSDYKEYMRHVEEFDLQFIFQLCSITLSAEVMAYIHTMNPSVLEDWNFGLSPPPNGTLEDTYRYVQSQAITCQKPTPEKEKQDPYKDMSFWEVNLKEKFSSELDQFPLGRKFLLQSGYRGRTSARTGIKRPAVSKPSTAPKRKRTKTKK

Another assay concerns the target T3, HPV56L1 (human papillomavirus type 56, UniProt P36743 36-534).
T3 sequence: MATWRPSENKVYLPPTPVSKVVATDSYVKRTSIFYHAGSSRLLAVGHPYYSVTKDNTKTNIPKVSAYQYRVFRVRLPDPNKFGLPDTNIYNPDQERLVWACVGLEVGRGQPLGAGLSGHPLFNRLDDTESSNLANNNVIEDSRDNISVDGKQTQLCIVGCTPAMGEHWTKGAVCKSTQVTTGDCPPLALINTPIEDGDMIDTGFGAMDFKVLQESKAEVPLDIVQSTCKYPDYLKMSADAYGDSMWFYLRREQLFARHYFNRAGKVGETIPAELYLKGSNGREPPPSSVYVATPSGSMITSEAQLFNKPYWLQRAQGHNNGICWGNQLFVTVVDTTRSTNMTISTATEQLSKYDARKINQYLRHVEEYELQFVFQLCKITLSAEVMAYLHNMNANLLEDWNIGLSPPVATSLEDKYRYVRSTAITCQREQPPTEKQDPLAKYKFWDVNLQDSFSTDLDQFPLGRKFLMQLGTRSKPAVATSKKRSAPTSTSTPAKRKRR

For the next assay, the target named is T4, HPV31L1 (human papillomavirus type 31, UniProt P17388 1-504).
T4 sequence: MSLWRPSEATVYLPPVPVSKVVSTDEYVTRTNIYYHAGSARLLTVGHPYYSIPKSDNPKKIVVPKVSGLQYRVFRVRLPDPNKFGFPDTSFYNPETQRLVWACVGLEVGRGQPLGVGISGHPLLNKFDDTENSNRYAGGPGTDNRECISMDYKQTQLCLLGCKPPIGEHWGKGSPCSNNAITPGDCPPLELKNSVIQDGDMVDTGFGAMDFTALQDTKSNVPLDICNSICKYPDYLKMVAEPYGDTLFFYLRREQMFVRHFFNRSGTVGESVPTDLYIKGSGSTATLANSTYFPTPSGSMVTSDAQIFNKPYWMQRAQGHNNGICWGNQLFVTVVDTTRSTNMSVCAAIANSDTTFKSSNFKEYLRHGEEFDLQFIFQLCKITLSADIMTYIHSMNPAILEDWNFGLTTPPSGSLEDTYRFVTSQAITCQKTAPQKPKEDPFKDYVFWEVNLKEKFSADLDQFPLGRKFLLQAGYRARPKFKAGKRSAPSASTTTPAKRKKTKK

A further assay has as its target T5, HPV45L1 (human papillomavirus type 45, UniProt P36741 30-539).
T5 sequence: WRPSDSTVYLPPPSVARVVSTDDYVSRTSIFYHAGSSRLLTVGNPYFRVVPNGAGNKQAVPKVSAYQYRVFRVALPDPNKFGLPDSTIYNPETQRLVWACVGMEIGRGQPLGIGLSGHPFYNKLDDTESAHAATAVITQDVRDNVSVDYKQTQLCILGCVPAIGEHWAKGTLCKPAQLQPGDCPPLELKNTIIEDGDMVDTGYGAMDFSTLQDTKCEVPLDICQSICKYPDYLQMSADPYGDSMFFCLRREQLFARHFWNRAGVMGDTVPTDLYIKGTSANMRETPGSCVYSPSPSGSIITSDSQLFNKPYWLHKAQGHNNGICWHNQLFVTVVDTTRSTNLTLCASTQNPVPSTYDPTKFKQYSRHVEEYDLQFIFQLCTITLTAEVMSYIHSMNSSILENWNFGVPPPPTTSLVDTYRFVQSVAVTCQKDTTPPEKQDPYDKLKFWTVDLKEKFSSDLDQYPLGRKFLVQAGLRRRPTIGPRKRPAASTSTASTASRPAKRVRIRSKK

B1: HPV 59编号为30单克隆抗体 (antibody, V domains shown)
VH: QIQLVQSGPELKKPGETVKISCKASGYTFTDYSMHWVKQAPGKGLKWMGWINTETGEPTYADDFKGRFAFSLETSASTAYLQINNLKIEDTATYFCTRDGYVWYFDVWGAGTTVTVSS
VL: QIVLSQSPAILSASPGEKVTMTCRASSSVNYMHWYQQKPGSSPKPWIYATSNLASGVPARFSGSGSGTSYSLTISRVEAEDAATYYCQQWSSNPIFTFGSGTKLEIK
notes: Mouse hybridoma antibody tested as cell supernatant; also called 59H30
B1: the binding result with HPV35L1, with HPV11L1, with HPV56L1, in the assay with HPV31L1 and with HPV45L1 was “no binding (tested: 原液40μg/ml; 细胞上清1:100)” in each case.
